Assay results from the supplement of paper PMC5998384.

What was measured:
HeLa Kyoto [1] = assay: solubility change mitosis vs G1/S (difference of NP-40 vs SDS log2 ratios) (log2 ratio difference); higher = more soluble in mitosis
HeLa Kyoto [2] = assay: thermal stability score vs G1/S (z-score of summed log2 fold changes over temperatures); higher = more thermally stable than in G1/S
HeLa Kyoto [3] = assay: solubility in G1/S (NP-40 vs SDS abundance) (log2 ratio); higher = more soluble; conditions: cell cycle stage: G1/S
[4] = cell cycle stage: early G1 (4.5 h after nocodazole release)
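Throughout, for solubility change mitosis vs G1/S (difference of NP-40 vs SDS log2 ratios): synchronized HeLa Kyoto cells (double thymidine block for G1/S, nocodazole release for mitosis), protein amounts in NP-40 versus SDS lysates quantified by mass spectrometry, three biological replicates.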
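Throughout, for solubility in G1/S (NP-40 vs SDS abundance): HeLa Kyoto cells arrested at G1/S by double thymidine block, proteins quantified by TMT10plex mass spectrometry in mild NP-40 versus SDS extracts, three biological replicates.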
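Throughout, for thermal stability score vs G1/S (z-score of summed log2 fold changes over temperatures): synchronized HeLa Kyoto cells, proteins quantified by TMT10plex mass spectrometry, three biological replicates, mitosis taken 0.5 h after nocodazole release, G1/S directly after double thymidine block.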

CDK17, sequence (chain, as listed by the source): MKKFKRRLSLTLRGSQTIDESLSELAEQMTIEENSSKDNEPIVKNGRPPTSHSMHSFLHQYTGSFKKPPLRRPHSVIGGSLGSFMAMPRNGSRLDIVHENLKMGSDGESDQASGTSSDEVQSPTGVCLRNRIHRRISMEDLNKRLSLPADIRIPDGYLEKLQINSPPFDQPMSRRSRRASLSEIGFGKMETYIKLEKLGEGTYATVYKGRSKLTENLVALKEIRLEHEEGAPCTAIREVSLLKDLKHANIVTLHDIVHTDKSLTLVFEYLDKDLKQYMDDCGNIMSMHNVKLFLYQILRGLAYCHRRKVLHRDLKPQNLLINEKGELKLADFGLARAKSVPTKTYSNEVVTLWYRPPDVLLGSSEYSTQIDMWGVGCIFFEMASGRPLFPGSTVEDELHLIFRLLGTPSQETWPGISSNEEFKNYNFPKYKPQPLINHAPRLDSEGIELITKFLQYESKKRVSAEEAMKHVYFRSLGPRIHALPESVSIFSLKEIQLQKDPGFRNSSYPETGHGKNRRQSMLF

| Substance | solubility change mitosis (log2) (HeLa Kyoto [1]) | thermal stability score (HeLa Kyoto [2]; [4]) | thermal stability score (HeLa Kyoto [2]; cell cycle stage: mitosis) | solubility in G1/S (log2) (HeLa Kyoto [3]) |
| --- | --- | --- | --- | --- |
| MPGRSSSNSGSTGFISFSGVESALSSLKNFQACINSGMDTASSVALDLVESQTEVSSEYSMDKAMVEFATLDRQLNHYVKAVQSTINHVKEERPEKIPDLKLLVEKKFLALQSKNSDADFQNNEKFVQFKQQLKELKKQCGLQADREADGTEGVDEDIIVTQSQTNFTCPITKEEMKKPVKNKVCGHTYEEDAIVRMIESRQKRKKKAYCPQIGCSHTDIRKSDLIQDEALRRAIENHNKKRHRHSE [NSMCE2] | 0.0514 | -0.691 | -0.266 | -0.0327 |
| MAGFAELGLSSWLVEQCRQLGLKQPTPVQLGCIPAILEGRDCLGCAKTGSGKTAAFVLPILQKLSEDPYGIFCLVLTPTRELAYQIAEQFRVLGKPLGLKDCIIVGGMDMVAQALELSRKPHVVIATPGRLADHLRSSNTFSIKKIRFLVMDEADRLLEQGCTDFTVDLEAILAAVPARRQTLLFSATLTDTLRELQGLATNQPFFWEAQAPVSTVEQLDQRYLLVPEKVKDAYLVHLIQRFQDEHEDWSIIIFTNTCKTCQILCMMLRKFSFPTVALHSMMKQKERFAALAKFKSSIYRILIATDVASRGLDIPTVQVVINHNTPGLPKIYIHRVGRTARAGRQGQAITLVTQYDIHLVHAIEEQIKKKLEEFSVEEAEVLQILTQVNVVRRECEIKLEAAHFDEKKEINKRKQLILEGKDPDLEAKRKAELAKIKQKNRRFKEKVEETLKRQKAGRAGHKGRPPRTPSGSHSGPVPSQGLV [DDX49] | -0.0629 | 2.1 | 1.97 | -0.148 |
| MAAAAGDGGGEGGAGLGSAAGLGPGPGLRGQGPSAEAHEGAPDPMPAALHPEEVAARLQRMQRELSNRRKILVKNLPQDSNCQEVHDLLKDYDLKYCYVDRNKRTAFVTLLNGEQAQNAIQMFHQYSFRGKDLIVQLQPTDALLCITNVPISFTSEEFEELVRAYGNIERCFLVYSEVTGHSKGYGFVEYMKKDFAAKARLELLGRQLGASALFAQWMDVNLLASELIHSKCLCIDKLPSDYRDSEELLQIFSSVHKPVFCQLAQDEGSYVGGFAVVEYSTAEQAEEVQQAADGMTIKGSKVQVSFCAPGAPGRSTLAALIAAQRVMHSNQKGLLPEPNPVQIMKSLNNPAMLQVLLQPQLCGRAVKPAVLGTPHSLPHLMNPSISPAFLHLNKAHQSSVMGNTSNLFLQNLSHIPLAQQQLMKFENIHTNNKPGLLGEPPAVVLQTALGIGSVLPLKKELGHHHGEAHKTSSLIPTQTTITAGMGMLPFFPNQHIAGQAGPGHSNTQEKQPATVGMAEGNFSGSQPYLQSFPNLAAGSLLVGHHKQQQSQPKGTEISSGAASKNQTSLLGEPPKEIRLSKNPYLNLASVLPSVCLSSPASKTTLHKTGIASSILDAISQGSESQHALEKCIAYSPPFGDYAQVSSLRNEKRGSSYLISAPEGGSVECVDQHSQGTGAYYMETYLKKKRVY [RAVER2] | -0.203 | 1.56 | 1.81 | 0.172 |
| MGLSAAAPLWGPPGLLLAIALHPALSVPPRRDYCVLGAGPAGLQMAYFLQRAGRDYAVFERAPRPGSFFTRYPRHRKLISINKRYTGKANAEFNLRHDWNSLLSHDPRLLFRHYSRAYFPDARDMVRYLGDFADTLGLRVQYNTTIAHVTLDKDRQAWNGHYFILTDQKGQVHQCSVLFVATGLSVPNQVDFPGSEYAEGYESVSVDPEDFVGQNVLILGRGNSAFETAENILGVTNFIHMLSRSRVRLSWATHYVGDLRAINNGLLDTYQLKSLDGLLESDLTDLAILKDSKGKFHVTPKFFLEEANTNQSADSITLPQDDNDNFAMRVPYDRVIRCLGWNFDFSIFNKSLRLNSGNAFGKKYPLIRASYESKGSRGLFILGTASHSVDYRKSAGGFIHGFRYTVRAVHRLLEHRHHSVTWPATELPITQLTSSIVRRVNEASGLYQMFGVLADVILLKENSTAFEYLEEFPIQMLAQLETLTGRKAKHGLFVINMEYGRNFSGPDKDVFFDDRSVGHTEDAWQSNFLHPVIYYYRYLPTEQEVRFRPAHWPLPRPTAIHHIVEDFLTDWTAPIGHILPLRRFLENCLDTDLRSFYAESCFLFALTRQKLPPFCQQGYLRMQGLVSTESLWQHRVESRLLRDYAPTGRRLEDSSQQLGDQEPLGSPLAPGPLAQSVDSNKEEL [FOXRED2] | 0.00992 | 0.289 | 1.28 | -0.0337 |
| MKEGRGSFSVERGPRKERETAQSGMWKGNSPAGSQGAAMEGTGGELGGQGNWGPEDAPGLLARASLIMLPWPLPLASSALTLLFGALTSLFLWYCYRLGSQDMQALGAGSRAGGVRGGPVGCSEAGGPSPGGPGDPGEGPRTEGLVSRRLRAYARRYSWAGMGRVRRAAQGGPGPGRGPGVLGIQRPGLLFLPDLPSAPFVPRDAQRHDVELLESSFPAILRDFGAVSWDFSGTTPPPRGWSPPLAPGCYQLLLYQAGRCQPSNCRRCPGAYRALRGLRSFMSANTFGNAGFSVLLPGARLEGRCGPTNARVRCHLGLKIPPGCELVVGGEPQCWAEGHCLLVDDSFLHTVAHNGSPEDGPRVVFIVDLWHPNVAGAERQALDFVFAPDP [ASPHD1] | -0.229 | 1.03 | 1.87 | 0.213 |
| MGKMAAAVGSVATLATEPGEDAFRKLFRFYRQSRPGTADLEGVIDFSAAHAARGKGPGAQKVIKSQLNVSSVSEQNAYRAGLQPVSKWQAYGLKGYPGFIFIPNPFLPGYQWHWVKQCLKLYSQKPNVCNLDKHMSKEETQDLWEQSKEFLRYKEATKRRPRSLLEKLRWVTVGYHYNWDSKKYSADHYTPFPSDLGFLSEQVAAACGFEDFRAEAGILNYYRLDSTLGIHVDRSELDHSKPLLSFSFGQSAIFLLGGLQRDEAPTAMFMHSGDIMIMSGFSRLLNHAVPRVLPNPEGEGLPHCLEAPLPAVLPRDSMVEPCSMEDWQVCASYLKTARVNMTVRQVLATDQNFPLEPIEDEKRDISTEGFCHLDDQNSEVKRARINPDS [ALKBH1] | -0.0399 | -0.273 | 0.558 | 0.0175 |
| VPS13D | -0.104 | 0.236 | -0.0982 | -0.404 |
| CDK17 | 0.0778 | 0.0888 | -0.0845 | -0.187 |
| MATIEEIAHQIIEQQMGEIVTEQQTGQKIQIVTALDHNTQGKQFILTNHDGSTPSKVILARQDSTPGKVFLTTPDAAGVNQLFFTTPDLSAQHLQLLTDNSPDQGPNKVFDLCVVCGDKASGRHYGAVTCEGCKGFFKRSIRKNLVYSCRGSKDCIINKHHRNRCQYCRLQRCIAFGMKQDSVQCERKPIEVSREKSSNCAASTEKIYIRKDLRSPLTATPTFVTDSESTRSTGLLDSGMFMNIHPSGVKTESAVLMTSDKAESCQGDLSTLANVVTSLANLGKTKDLSQNSNEMSMIESLSNDDTSLCEFQEMQTNGDVSRAFDTLAKALNPGESTACQSSVAGMEGSVHLITGDSSINYTEKEGPLLSDSHVAFRLTMPSPMPEYLNVHYIGESASRLLFLSMHWALSIPSFQALGQENSISLVKAYWNELFTLGLAQCWQVMNVATILATFVNCLHNSLQQDKMSTERRKLLMEHIFKLQEFCNSMVKLCIDGYEYAYLKAIVLFSPDHPSLENMEQIEKFQEKAYVEFQDYITKTYPDDTYRLSRLLLRLPALRLMNATITEELFFKGLIGNIRIDSVIPHILKMEPADYNSQIIGHSI [NR2C1] | -0.0241 | 0.319 | 0.185 | 0.173 |
| MGDMKTPDFDDLLAAFDIPDPTSLDAKEAIQTPSEENESPLKPPGICMDESVSLSHSGSAPDVPAVSVIVKNTSRQESFEAEKDHITPSLLHNGFRGSDLPPDPHNCGKFDSTFMNGDSARSFPGKLEPPKSEPLPTFNQFSPISSPEPEDPIKDNGFGIKPKHSDSYFPPPLGCGAVGGPVLEALAKFPVPELHMFDHFCKKEPKPEPLPLGSQQEHEQSGQNTVEPHKDPDATRFFGEALEFNSHPSNSIGESKGLARELGTCSSVPPRQRLKPAHSKLSSCVAALVALQAKRVASVTKEDQPGHTKDLSGPTKESSKGSPKMPKSPKSPRSPLEATRKSIKPSDSPRSICSDSSSKGSPSVAASSPPAIPKVRIKTIKTSSGEIKRTVTRILPDPDDPSKSPVGSPLGSAIAEAPSEMPGDEVPVEEHFPEAGTNSGSPQGARKGDESMTKASDSSSPSCSSGPRVPKGAAPGSQTGKKQQSTALQASTLAPANLLPKAVHLANLNLVPHSVAASVTAKSSVQRRSQPQLTQMSVPLVHQVKKAAPLIVEVFNKVLHSSNPVPLYAPNLSPPADSRIHVPASGYCCLECGDAFALEKSLSQHYGRRSVHIEVLCTLCSKTLLFFNKCSLLRHARDHKSKGLVMQCSQLLVKPISADQMFVSAPVNSTAPAAPAPSSSPKHGLTSGSASPPPPALPLYPDPVRLIRYSIKCLECHKQMRDYMVLAAHFQRTTEETEGLTCQVCQMLLPNQCSFCAHQRIHAHKSPYCCPECGVLCRSAYFQTHVKENCLHYARKVGYRCIHCGVVHLTLALLKSHIQERHCQVFHKCAFCPMAFKTASSTADHSATQHPTQPHRPSQLIYKCSCEMVFNKKRHIQQHFYQNVSKTQVGVFKCPECPLLFVQKPELMQHVKSTHGVPRNVDELSSLQSSADTSSSRPGSRVPTEPPATSVAARSSSLPSGRWGRPEAHRRVEARPRLRNTGWTCQECQEWVPDRESYVSHMKKSHGRTLKRYPCRQCEQSFHTPNSLRKHIRNNHDTVKKFYTCGYCTEDSPSFPRPSLLESHISLMHGIRNPDLSQTSKVKPPGGHSPQVNHLKRPVSGVGDAPGTSNGATVSSTKRHKSLFQCAKCSFATDSGLEFQSHIPQHQVDSSTAQCLLCGLCYTSASSLSRHLFIVHKVRDQEEEEEEEAAAAEMAVEVAEPEEGSGEEVPMETRENGLEECAGEPLSADPEARRLLGPAPEDDGGHNDHSQPQASQDQDSHTLSPQV [ZNF592] | 0.109 | -0.704 | -1.78 | -0.283 |
| MSQVMSSPLLAGGHAVSLAPCDEPRRTLHPAPSPSLPPQCSYYTTEGWGAQALMAPVPCMGPPGRLQQAPQVEAKATCFLPSPGEKALGTPEDLDSYIDFSLESLNQMILELDPTFQLLPPGTGGSQAELAQSTMSMRKKEESEALDIKYIEVTSARSRCHDGPQHCSSPSVTPPFGSLRSGGLLLSRDVPRETRSSSESLIFSGNQGRGHQRPLPPSEGLSPRPPNSPSISIPCMGSKASSPHGLGSPLVASPRLEKRLGGLAPQRGSRISVLSASPVSDVSYMFGSSQSLLHSSNSSHQSSSRSLESPANSSSSLHSLGSVSLCTRPSDFQAPRNPTLTMGQPRTPHSPPLAKEHASSCPPSITNSMVDIPIVLINGCPEPGSSPPQRTPGHQNSVQPGAASPSNPCPATRSNSQTLSDAPFTTCPEGPARDMQPTMKFVMDTSKYWFKPNITREQAIELLRKEEPGAFVIRDSSSYRGSFGLALKVQEVPASAQSRPGEDSNDLIRHFLIESSAKGVHLKGADEEPYFGSLSAFVCQHSIMALALPCKLTIPQRELGGADGASDSTDSPASCQKKSAGCHTLYLSSVSVETLTGALAVQKAISTTFERDILPTPTVVHFKVTEQGITLTDVQRKVFFRRHYPLTTLRFCGMDPEQRKWQKYCKPSWIFGFVAKSQTEPQENVCHLFAEYDMVQPASQVIGLVTALLQDAERM [TNS4] | -0.0286 | -0.0391 | 2.56 | 0.00637 |
